Reference: publication doi:10.1101/2024.08.29.607757 (bioRxiv, 2024)

T1: NtcA (Synechococcus elongatus PCC7942, UniProt P29283 1-222)
T1 sequence: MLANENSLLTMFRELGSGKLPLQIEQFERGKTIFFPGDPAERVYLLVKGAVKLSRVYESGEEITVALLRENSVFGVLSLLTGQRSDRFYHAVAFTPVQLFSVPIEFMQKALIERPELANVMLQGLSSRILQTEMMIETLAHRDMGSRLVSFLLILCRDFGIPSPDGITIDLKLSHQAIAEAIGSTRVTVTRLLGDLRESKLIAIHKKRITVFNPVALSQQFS

B1: PipX from Synechococcus elongatus (strain PCC7942) with N-terminal His6 tag (natural protein)
chain: MASENYLNHPTFGLLYQICSFGDSKELFATLYAQRLFFLVAFDARGTRFEPIGRNEARMLVDNRLRQLRRDASLQEYNQLQQVFKQTFL
B2: nicked symmetric glnA half-site NtcA box (NtcA-DNA crystal) (dsDNA)
DNA 1: CATTTTTATGTATC
DNA 2: AGCTGATACATAAAAAT
B3: NtcA from Synechococcus elongatus (strain PCC7942) with N-terminal His6 tag (natural protein)
chain: T1 sequence

How the values were obtained:
[1] = target: B3; test: crystal structure
[2] = target: T1, NtcA; test: X-ray crystallography
[3] = target: the molecule itself; test: crystal structure

Binder: B1
- binding result [1]: binds

Binder: B2
- binding result [2]: binds

Binder: B3
- binding result [3]: binds
